# Measurements published in the supplement of paper PMC10567573.
# B1: MMP1 (parent)
# chain: YTPDLPRADVDHAIEKAFQLWSNV
# Variants of: B1
# Assay: protein stability index of a GFP-peptide fusion (GPS, HEK-293T) (PSI 1-6); higher = more stable
# Conditions: c terminus: a fixed tail appended
# 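Note: lentivirally expressed fusions sorted by FACS into six bins by GFP to DsRed ratio, PSI derived from sequencing read proportions per bin multiplied by bin number.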
row,Variant,protein stability index
1,YTPDLPRCDVDHAIEKAFQLWSNV,2.07
2,YTPDLPREDVDHAIEKAFQLWSNV,2.67
3,YTPDLPRNDVDHAIEKAFQLWSNV,1.41
4,YTPDLPRDDVDHAIEKAFQLWSNV,1.53
5,YTPDLPRPDVDHAIEKAFQLWSNV,1.51
6,YTPDLPRTDVDHAIEKAFQLWSNV,1.79
7,YTPDLPRYDVDHAIEKAFQLWSNV,1.93
8,YTPDLPRRDVDHAIEKAFQLWSNV,1.67
9,YTPDLPRKDVDHAIEKAFQLWSNV,2.58
10,YTPDLPRGDVDHAIEKAFQLWSNV,2.83
11,YTPDLPRVDVDHAIEKAFQLWSNV,1.64
12,YTPDLPRFDVDHAIEKAFQLWSNV,2.94
13,YTPDLPRSDVDHAIEKAFQLWSNV,1.68
14,YTPDLPRHDVDHAIEKAFQLWSNV,1.75
15,YTPDLPRIDVDHAIEKAFQLWSNV,1.88
16,YTPDLPRWDVDHAIEKAFQLWSNV,1.87
17,YTPDLPRLDVDHAIEKAFQLWSNV,2.03
18,YTPDLPRQDVDHAIEKAFQLWSNV,1.57
19,YTPDLPRMDVDHAIEKAFQLWSNV,1.74
20,YTPDLPRANVDHAIEKAFQLWSNV,1.59
21,YTPDLPRAVVDHAIEKAFQLWSNV,2.62
22,YTPDLPRAFVDHAIEKAFQLWSNV,1.57
23,YTPDLPRARVDHAIEKAFQLWSNV,1.16
24,YTPDLPRAKVDHAIEKAFQLWSNV,2.44

row,Variant,protein stability index
1,YTPDLPRAMVDHAIEKAFQLWSNV,2.31
2,YTPDLPRAYVDHAIEKAFQLWSNV,2.35
3,YTPDLPRALVDHAIEKAFQLWSNV,1.3
4,YTPDLPRAIVDHAIEKAFQLWSNV,1.78
5,YTPDLPRACVDHAIEKAFQLWSNV,1.75
6,YTPDLPRAGVDHAIEKAFQLWSNV,2.49
7,YTPDLPRAEVDHAIEKAFQLWSNV,1.75
8,YTPDLPRAPVDHAIEKAFQLWSNV,1.54
9,YTPDLPRAWVDHAIEKAFQLWSNV,1.51
10,YTPDLPRASVDHAIEKAFQLWSNV,2.55
11,YTPDLPRATVDHAIEKAFQLWSNV,1.82
12,YTPDLPRAHVDHAIEKAFQLWSNV,2.51
13,YTPDLPRAAVDHAIEKAFQLWSNV,1.38
14,YTPDLPRAQVDHAIEKAFQLWSNV,2.5
15,YTPYLPRADVDHAIEKAFQLWSNV,3.17
16,YTPGLPRADVDHAIEKAFQLWSNV,2.16
17,YTPMLPRADVDHAIEKAFQLWSNV,2.23
18,YTPSLPRADVDHAIEKAFQLWSNV,2.35
19,YTPKLPRADVDHAIEKAFQLWSNV,2.38
20,YTPWLPRADVDHAIEKAFQLWSNV,1.94
21,YTPHLPRADVDHAIEKAFQLWSNV,2.28
22,YTPLLPRADVDHAIEKAFQLWSNV,3.1
23,YTPTLPRADVDHAIEKAFQLWSNV,3.69
24,YTPVLPRADVDHAIEKAFQLWSNV,3.17

row,Variant,protein stability index
1,YTPRLPRADVDHAIEKAFQLWSNV,2.52
2,YTPPLPRADVDHAIEKAFQLWSNV,1.99
3,YTPILPRADVDHAIEKAFQLWSNV,2.75
4,YTPQLPRADVDHAIEKAFQLWSNV,2.62
5,YTPNLPRADVDHAIEKAFQLWSNV,2.56
6,YTPDLPRADFDHAIEKAFQLWSNV,1.79
7,YTPDLPRADHDHAIEKAFQLWSNV,1.58
8,YTPDLPRADWDHAIEKAFQLWSNV,3.04
9,YTPDLPRADGDHAIEKAFQLWSNV,1.96
10,YTPDLPRADKDHAIEKAFQLWSNV,2.44
11,YTPDLPRADMDHAIEKAFQLWSNV,2.56
12,YTPDLPRADPDHAIEKAFQLWSNV,1.49
13,YTPDLPRADQDHAIEKAFQLWSNV,1.81
14,YTPDLPRADYDHAIEKAFQLWSNV,2.71
15,YTPDLPRADRDHAIEKAFQLWSNV,2.55
16,YTPDLPRADTDHAIEKAFQLWSNV,1.91
17,YTPDLPRADCDHAIEKAFQLWSNV,2.1
18,YTPDLPRADADHAIEKAFQLWSNV,2.06
19,YTPDLPRADDDHAIEKAFQLWSNV,2.16
20,YTPDLPRADLDHAIEKAFQLWSNV,1.27
21,YTPDLPRADEDHAIEKAFQLWSNV,1.81
22,YTPDLPRADNDHAIEKAFQLWSNV,1.48
23,YTPDLPRADIDHAIEKAFQLWSNV,1.76
24,YTPDLPRADSDHAIEKAFQLWSNV,1.88

row,Variant,protein stability index
1,YTPDLPRADVDHAAEKAFQLWSNV,1.68
2,YTPDLPRADVDHACEKAFQLWSNV,2.1
3,YTPDLPRADVDAAIEKAFQLWSNV,2.46
4,YTPDLPRADVDNAIEKAFQLWSNV,1.92
5,YTPDLPRADVDRAIEKAFQLWSNV,1.64
6,YTPDLPRADVDGAIEKAFQLWSNV,2.03
7,YTPDLPRADVDVAIEKAFQLWSNV,1.95
8,YTPDLPRADVDSAIEKAFQLWSNV,1.58
9,YTPDLPRADVDMAIEKAFQLWSNV,1.63
10,YTPDLPRADVDPAIEKAFQLWSNV,2.11
11,YTPDLPRADVDFAIEKAFQLWSNV,1.7
12,YTPDLPRADVDYAIEKAFQLWSNV,2
13,YTPDLPRADVDTAIEKAFQLWSNV,1.82
14,YTPDLPRADVDCAIEKAFQLWSNV,1.62
15,YTPDLPRADVDDAIEKAFQLWSNV,2.09
16,YTPDLPRADVDKAIEKAFQLWSNV,1.79
17,YTPDLPRADVDEAIEKAFQLWSNV,2.04
18,YTPDLPRADVDWAIEKAFQLWSNV,2.21
19,YTPDLPRADVDLAIEKAFQLWSNV,2.19
20,YTPDLPRADVDQAIEKAFQLWSNV,1.69
21,YTPDLPRADVDIAIEKAFQLWSNV,2
22,YTPDLPVADVDHAIEKAFQLWSNV,2.12
23,YTPDLPLADVDHAIEKAFQLWSNV,1.42
24,YTPDLPGADVDHAIEKAFQLWSNV,1.91

row,Variant,protein stability index
1,YTPDLPSADVDHAIEKAFQLWSNV,1.75
2,YTPDLPIADVDHAIEKAFQLWSNV,1.5
3,YTPDLPTADVDHAIEKAFQLWSNV,1.88
4,YTPDLPNADVDHAIEKAFQLWSNV,1.64
5,YTPDLPDADVDHAIEKAFQLWSNV,1.79
6,YTPDLPPADVDHAIEKAFQLWSNV,1.81
7,YTPDLPHADVDHAIEKAFQLWSNV,1.89
8,YTPDLPKADVDHAIEKAFQLWSNV,2.12
9,YTPDLPYADVDHAIEKAFQLWSNV,1.08
10,YTPDLPFADVDHAIEKAFQLWSNV,2.09
11,YTPDLPMADVDHAIEKAFQLWSNV,2.25
12,YTPDLPQADVDHAIEKAFQLWSNV,1.92
13,YTPDLPWADVDHAIEKAFQLWSNV,1.79
14,YTPDLPEADVDHAIEKAFQLWSNV,1.94
15,YTPDLPAADVDHAIEKAFQLWSNV,2.3
16,YTPDLPCADVDHAIEKAFQLWSNV,2.01
17,YTPDLPRADVDHNIEKAFQLWSNV,2.11
18,YTPDLPRADVDHSIEKAFQLWSNV,1.89
19,YTPDLPRADVDHQIEKAFQLWSNV,2.03
20,YTPDLPRADVDHFIEKAFQLWSNV,1.79
21,YTPDLPRADVDHRIEKAFQLWSNV,2.08
22,YTPDLPRADVDHYIEKAFQLWSNV,1.95
23,YTPDLPRADVDHTIEKAFQLWSNV,3
24,YTPDLPRADVDHPIEKAFQLWSNV,1.58

row,Variant,protein stability index
1,YTPDLPRADVDHEIEKAFQLWSNV,2.19
2,YTPDLPRADVDHKIEKAFQLWSNV,2.1
3,YTPDLPRADVDHWIEKAFQLWSNV,2.06
4,YTPDLPRADVDHDIEKAFQLWSNV,1.71
5,YTPDLPRADVDHCIEKAFQLWSNV,1.93
6,YTPDLPRADVDHMIEKAFQLWSNV,2.61
7,YTPDLPRADVDHLIEKAFQLWSNV,1.63
8,YTPDLPRADVDHHIEKAFQLWSNV,2.27
9,YTPDLPRADVDHIIEKAFQLWSNV,2.27
10,YTPDLPRADVDHGIEKAFQLWSNV,3.15
11,YTPDLPRADVDHVIEKAFQLWSNV,2.79
12,YTPDLCRADVDHAIEKAFQLWSNV,2.05
13,YTPDLIRADVDHAIEKAFQLWSNV,2.09
14,YTPDLFRADVDHAIEKAFQLWSNV,1.82
15,YTPDLLRADVDHAIEKAFQLWSNV,1.32
16,YTPDLNRADVDHAIEKAFQLWSNV,1.8
17,YTPDLVRADVDHAIEKAFQLWSNV,2.12
18,YTPDLTRADVDHAIEKAFQLWSNV,1.78
19,YTPDLYRADVDHAIEKAFQLWSNV,1.47
20,YTPDLQRADVDHAIEKAFQLWSNV,2.03
21,YTPDLRRADVDHAIEKAFQLWSNV,1.78
22,YTPDLWRADVDHAIEKAFQLWSNV,2.06
23,YTPDLERADVDHAIEKAFQLWSNV,1.83
24,YTPDLSRADVDHAIEKAFQLWSNV,2.55

row,Variant,protein stability index
1,YTPDLHRADVDHAIEKAFQLWSNV,1.55
2,YTPDLKRADVDHAIEKAFQLWSNV,2.12
3,YTPDLARADVDHAIEKAFQLWSNV,1.56
4,YTPDLGRADVDHAIEKAFQLWSNV,2.17
5,YTPDLDRADVDHAIEKAFQLWSNV,2.01
6,YTPDLMRADVDHAIEKAFQLWSNV,2.2
7,YTPDLPRADVHHAIEKAFQLWSNV,2.07
8,YTPDLPRADVGHAIEKAFQLWSNV,3.41
9,YTPDLPRADVAHAIEKAFQLWSNV,2.08
10,YTPDLPRADVYHAIEKAFQLWSNV,1.7
11,YTPDLPRADVKHAIEKAFQLWSNV,2.21
12,YTPDLPRADVLHAIEKAFQLWSNV,1.96
13,YTPDLPRADVSHAIEKAFQLWSNV,1.96
14,YTPDLPRADVMHAIEKAFQLWSNV,2.12
15,YTPDLPRADVQHAIEKAFQLWSNV,1.83
16,YTPDLPRADVTHAIEKAFQLWSNV,2.62
17,YTPDLPRADVRHAIEKAFQLWSNV,2.69
18,YTPDLPRADVPHAIEKAFQLWSNV,3.09
19,YTPDLPRADVWHAIEKAFQLWSNV,1.73
20,YTPDLPRADVCHAIEKAFQLWSNV,2.17
21,YTPDLPRADVFHAIEKAFQLWSNV,2.12
22,YTPDLPRADVVHAIEKAFQLWSNV,1.59
23,YTPDLPRADVIHAIEKAFQLWSNV,1.94
24,YTPDLPRADVEHAIEKAFQLWSNV,1.4

row,Variant,protein stability index
1,YTPDLPRADVNHAIEKAFQLWSNV,1.63
2,YTPDYPRADVDHAIEKAFQLWSNV,1.44
3,YTPDEPRADVDHAIEKAFQLWSNV,2.16
4,YTPDWPRADVDHAIEKAFQLWSNV,2.17
5,YTPDMPRADVDHAIEKAFQLWSNV,2.12
6,YTPDVPRADVDHAIEKAFQLWSNV,2.89
7,YTPDRPRADVDHAIEKAFQLWSNV,2.49
8,YTPDCPRADVDHAIEKAFQLWSNV,1.84
9,YTPDAPRADVDHAIEKAFQLWSNV,2.11
10,YTPDDPRADVDHAIEKAFQLWSNV,2.34
11,YTPDTPRADVDHAIEKAFQLWSNV,2.02
12,YTPDIPRADVDHAIEKAFQLWSNV,2.1
13,YTPDKPRADVDHAIEKAFQLWSNV,1.91
14,YTPDSPRADVDHAIEKAFQLWSNV,2.05
15,YTPDFPRADVDHAIEKAFQLWSNV,2.64
16,YTPDNPRADVDHAIEKAFQLWSNV,1.92
17,YTPDGPRADVDHAIEKAFQLWSNV,1.32
18,YTPDQPRADVDHAIEKAFQLWSNV,2.07
19,YTPDHPRADVDHAIEKAFQLWSNV,2.2
20,YTPDPPRADVDHAIEKAFQLWSNV,1.81
